Test results from the supplement of paper PMC10065799, “High-throughput profiling of sequence recognition by tyrosine kinases and SH2 domains using bacterial peptide display” (eLife, 2023).

What was measured:
Fyn = Fyn (UniProt P06241); test: phosphorylation enrichment, bacterial display (enrichment ratio); higher = better substrate or ligand; peptides without Tyr show the background
EPHB1 = EPHB1 (UniProt P54762); test: as above
c-Src = test: as above
Fes = Fes (UniProt P07332); test: as above
FGFR3 = FGFR3 (UniProt P22607); test: as above
FGFR1 = FGFR1 (UniProt P11362); test: as above
AncSZ = test: as above
MERTK = MERTK (UniProt Q12866); test: as above
c-Abl (mouse) = test: as above
Hck = Hck (UniProt P08631); test: as above
Fer (mouse) = test: as above
EPHB2 = EPHB2 (UniProt P29323); test: as above
Jak2 = Jak2 (UniProt O60674); test: as above
SHP2-C SH2 = test: SH2 binding enrichment of the phosphorylated peptide, bacterial display (enrichment ratio); higher = better substrate or ligand; peptides without Tyr show the background
c-Src SH2 = test: as above
Grb2 SH2 = Grb2 SH2 (UniProt P62993); test: as above
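For SH2 binding enrichment of the phosphorylated peptide, bacterial display in this document: peptide library displayed on the E. coli surface as eCPX fusions, selected cells deep-sequenced, score is each peptide's frequency after selection divided by its frequency in the input.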
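For phosphorylation enrichment, bacterial display in this document: 11-residue human phosphosite peptides and single-mutation variants displayed on the E. coli surface, counted by deep sequencing, each peptide's frequency after selection divided by its frequency in the unselected input library; frequency after pTyr selection over input frequency; kinase dosed for 20-30% of maximal phosphorylation in three min.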

Sequence of FGFR3 (P22607 whole entry, looked up): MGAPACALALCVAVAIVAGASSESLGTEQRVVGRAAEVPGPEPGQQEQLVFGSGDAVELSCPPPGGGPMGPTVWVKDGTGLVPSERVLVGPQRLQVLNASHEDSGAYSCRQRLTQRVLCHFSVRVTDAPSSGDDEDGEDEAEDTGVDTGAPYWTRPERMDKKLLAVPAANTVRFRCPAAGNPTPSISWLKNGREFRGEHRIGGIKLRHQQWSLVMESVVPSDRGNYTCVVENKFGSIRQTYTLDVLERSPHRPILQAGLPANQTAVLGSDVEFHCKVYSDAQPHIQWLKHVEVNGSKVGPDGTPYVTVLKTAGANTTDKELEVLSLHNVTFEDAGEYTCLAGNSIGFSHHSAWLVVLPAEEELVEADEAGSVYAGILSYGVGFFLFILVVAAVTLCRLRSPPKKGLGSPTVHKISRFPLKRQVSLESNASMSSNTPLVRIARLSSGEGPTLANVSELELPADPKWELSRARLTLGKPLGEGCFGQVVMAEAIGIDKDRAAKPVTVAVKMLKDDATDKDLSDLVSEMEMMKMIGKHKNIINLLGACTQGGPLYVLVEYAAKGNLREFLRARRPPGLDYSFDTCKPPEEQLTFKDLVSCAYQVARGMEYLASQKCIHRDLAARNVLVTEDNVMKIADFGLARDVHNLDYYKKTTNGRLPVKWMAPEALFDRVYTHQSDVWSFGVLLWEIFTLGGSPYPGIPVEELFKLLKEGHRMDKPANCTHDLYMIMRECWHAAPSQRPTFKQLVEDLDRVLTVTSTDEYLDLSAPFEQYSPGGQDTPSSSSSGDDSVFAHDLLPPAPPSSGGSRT
Sequence of MERTK (Q12866 whole entry, looked up): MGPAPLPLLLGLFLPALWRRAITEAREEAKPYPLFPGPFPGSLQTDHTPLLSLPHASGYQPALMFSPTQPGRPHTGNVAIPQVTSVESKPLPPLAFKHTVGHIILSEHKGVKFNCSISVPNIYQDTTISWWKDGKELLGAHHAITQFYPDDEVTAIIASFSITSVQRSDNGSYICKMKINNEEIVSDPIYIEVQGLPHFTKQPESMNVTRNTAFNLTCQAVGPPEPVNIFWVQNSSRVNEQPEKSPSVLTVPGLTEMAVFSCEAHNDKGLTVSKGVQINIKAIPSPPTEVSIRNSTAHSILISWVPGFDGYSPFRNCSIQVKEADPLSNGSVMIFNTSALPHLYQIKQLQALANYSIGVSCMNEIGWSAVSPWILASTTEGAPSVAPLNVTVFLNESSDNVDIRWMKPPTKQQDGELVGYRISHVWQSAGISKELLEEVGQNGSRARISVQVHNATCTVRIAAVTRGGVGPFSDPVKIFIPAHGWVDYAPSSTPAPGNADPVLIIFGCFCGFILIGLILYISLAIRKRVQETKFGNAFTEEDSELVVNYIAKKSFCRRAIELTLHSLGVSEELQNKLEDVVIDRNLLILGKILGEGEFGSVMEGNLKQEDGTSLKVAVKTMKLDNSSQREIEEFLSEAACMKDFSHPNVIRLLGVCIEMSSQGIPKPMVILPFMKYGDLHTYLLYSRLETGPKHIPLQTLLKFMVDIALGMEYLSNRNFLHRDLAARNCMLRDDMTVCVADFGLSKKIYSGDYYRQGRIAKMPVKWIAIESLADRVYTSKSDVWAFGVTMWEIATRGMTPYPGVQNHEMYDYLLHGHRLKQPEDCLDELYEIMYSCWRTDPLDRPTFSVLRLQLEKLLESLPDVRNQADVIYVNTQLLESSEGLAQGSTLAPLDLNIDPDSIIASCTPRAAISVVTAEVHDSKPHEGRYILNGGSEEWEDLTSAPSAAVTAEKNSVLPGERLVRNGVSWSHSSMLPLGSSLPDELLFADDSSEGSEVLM
Sequence of FGFR1 (P11362 whole entry, looked up): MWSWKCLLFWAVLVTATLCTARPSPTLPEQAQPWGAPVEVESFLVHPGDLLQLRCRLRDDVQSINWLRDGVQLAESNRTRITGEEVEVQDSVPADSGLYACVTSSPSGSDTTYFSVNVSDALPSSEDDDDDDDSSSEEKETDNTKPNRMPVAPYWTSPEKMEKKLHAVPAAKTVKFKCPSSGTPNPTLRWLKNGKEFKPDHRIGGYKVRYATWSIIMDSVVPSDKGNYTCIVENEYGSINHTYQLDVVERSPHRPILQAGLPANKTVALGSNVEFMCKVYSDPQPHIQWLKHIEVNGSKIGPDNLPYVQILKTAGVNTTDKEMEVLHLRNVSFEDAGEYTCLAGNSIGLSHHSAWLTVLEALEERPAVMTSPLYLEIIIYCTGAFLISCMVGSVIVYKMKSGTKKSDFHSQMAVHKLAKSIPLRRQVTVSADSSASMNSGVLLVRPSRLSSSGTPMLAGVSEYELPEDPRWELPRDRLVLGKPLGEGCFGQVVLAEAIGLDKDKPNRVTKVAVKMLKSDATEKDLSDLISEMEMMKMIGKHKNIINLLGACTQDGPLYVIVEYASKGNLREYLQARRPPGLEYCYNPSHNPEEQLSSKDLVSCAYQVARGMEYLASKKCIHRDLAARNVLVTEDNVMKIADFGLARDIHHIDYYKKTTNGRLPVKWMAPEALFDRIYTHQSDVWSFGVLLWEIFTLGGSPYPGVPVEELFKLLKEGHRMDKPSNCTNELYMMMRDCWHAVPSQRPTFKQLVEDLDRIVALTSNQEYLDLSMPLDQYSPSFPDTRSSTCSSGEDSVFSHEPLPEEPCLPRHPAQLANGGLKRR
Sequence of EPHB2 (P29323 whole entry, looked up): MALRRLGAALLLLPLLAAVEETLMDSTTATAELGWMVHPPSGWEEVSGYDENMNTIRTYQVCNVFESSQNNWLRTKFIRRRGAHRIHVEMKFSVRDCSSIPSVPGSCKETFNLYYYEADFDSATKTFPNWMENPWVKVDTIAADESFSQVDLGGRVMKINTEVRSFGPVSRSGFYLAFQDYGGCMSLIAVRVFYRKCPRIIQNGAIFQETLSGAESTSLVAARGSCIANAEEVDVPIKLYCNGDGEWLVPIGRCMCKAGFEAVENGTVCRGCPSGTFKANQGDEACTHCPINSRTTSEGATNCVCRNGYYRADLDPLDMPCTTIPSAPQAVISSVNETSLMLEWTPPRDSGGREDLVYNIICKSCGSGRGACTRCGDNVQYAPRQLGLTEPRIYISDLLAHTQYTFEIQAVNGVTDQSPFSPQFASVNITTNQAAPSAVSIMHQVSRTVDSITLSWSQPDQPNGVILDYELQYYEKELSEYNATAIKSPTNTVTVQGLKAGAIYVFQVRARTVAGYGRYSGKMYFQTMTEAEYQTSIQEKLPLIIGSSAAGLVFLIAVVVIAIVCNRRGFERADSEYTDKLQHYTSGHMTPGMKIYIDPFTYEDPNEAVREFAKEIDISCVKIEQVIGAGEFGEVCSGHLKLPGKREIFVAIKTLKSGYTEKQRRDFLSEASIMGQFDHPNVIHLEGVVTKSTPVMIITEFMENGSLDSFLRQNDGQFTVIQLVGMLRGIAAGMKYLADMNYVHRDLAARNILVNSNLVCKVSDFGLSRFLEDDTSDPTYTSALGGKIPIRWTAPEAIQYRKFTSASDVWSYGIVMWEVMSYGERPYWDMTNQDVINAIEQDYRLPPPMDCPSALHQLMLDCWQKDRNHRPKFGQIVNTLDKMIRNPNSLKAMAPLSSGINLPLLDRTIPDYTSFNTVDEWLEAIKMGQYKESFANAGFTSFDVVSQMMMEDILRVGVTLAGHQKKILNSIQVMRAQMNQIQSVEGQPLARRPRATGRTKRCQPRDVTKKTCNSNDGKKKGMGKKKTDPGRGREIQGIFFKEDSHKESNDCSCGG
Sequence of Hck (P08631 whole entry, looked up): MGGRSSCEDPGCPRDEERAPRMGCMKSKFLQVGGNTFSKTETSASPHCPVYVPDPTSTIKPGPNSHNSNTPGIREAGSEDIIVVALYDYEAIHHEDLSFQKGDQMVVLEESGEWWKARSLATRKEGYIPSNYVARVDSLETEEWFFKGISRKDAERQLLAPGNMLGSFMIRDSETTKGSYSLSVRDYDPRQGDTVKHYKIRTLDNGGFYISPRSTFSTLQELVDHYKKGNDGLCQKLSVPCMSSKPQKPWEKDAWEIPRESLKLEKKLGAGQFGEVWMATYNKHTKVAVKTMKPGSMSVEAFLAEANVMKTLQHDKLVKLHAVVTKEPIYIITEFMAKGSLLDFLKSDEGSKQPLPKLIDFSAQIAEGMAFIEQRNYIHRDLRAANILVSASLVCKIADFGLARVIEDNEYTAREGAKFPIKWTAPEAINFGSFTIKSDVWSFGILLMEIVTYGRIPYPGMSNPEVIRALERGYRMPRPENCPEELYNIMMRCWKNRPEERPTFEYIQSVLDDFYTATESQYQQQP
Sequence of Fyn (P06241 whole entry, looked up): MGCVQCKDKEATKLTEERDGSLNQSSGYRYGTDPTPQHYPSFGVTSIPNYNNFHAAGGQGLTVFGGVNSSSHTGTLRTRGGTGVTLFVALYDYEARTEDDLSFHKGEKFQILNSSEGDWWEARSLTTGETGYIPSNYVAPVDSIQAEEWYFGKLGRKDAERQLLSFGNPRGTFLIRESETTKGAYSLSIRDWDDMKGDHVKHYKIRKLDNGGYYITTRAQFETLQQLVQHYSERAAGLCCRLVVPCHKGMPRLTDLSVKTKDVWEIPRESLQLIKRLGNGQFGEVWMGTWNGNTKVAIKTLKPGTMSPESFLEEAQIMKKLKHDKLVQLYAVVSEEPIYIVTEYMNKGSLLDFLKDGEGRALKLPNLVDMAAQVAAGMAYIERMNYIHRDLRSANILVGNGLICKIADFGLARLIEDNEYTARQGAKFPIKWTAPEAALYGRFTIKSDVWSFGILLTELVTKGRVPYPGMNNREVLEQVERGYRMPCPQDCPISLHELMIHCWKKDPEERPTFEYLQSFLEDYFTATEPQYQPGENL

SH2 binding enrichment (SHP2-C SH2) | SH2 binding enrichment (c-Src SH2) | SH2 binding enrichment (Grb2 SH2) | Sequence | phosphorylation enrichment (Fyn) | phosphorylation enrichment (EPHB1) | phosphorylation enrichment (c-Src) | phosphorylation enrichment (Fes) | phosphorylation enrichment (FGFR3) | phosphorylation enrichment (FGFR1) | phosphorylation enrichment (AncSZ) | phosphorylation enrichment (MERTK) | phosphorylation enrichment (c-Abl (mouse)) | phosphorylation enrichment (Hck) | phosphorylation enrichment (Fer (mouse)) | phosphorylation enrichment (EPHB2) | phosphorylation enrichment (Jak2)
0.427 | 0.443 | 0.735 | GRQGIYKENER [GPR143_Y231_T232K] | 0.371 | 0.322 | 0.436 | 0.722 | 0.428 | 0.441 | 0.627 | 0.738 | 0.555 | 0.484 | 0.407 | 0.375 | 0.515
0.867 | 0.599 | 1.04 | QNTGNYFDLFG [PTPN11_Y62_D61N_YF] | 0.541 | 27.6 | 0.71 | 1.44 | 15.3 | 21.2 | 1.6 | 10.8 | 1.28 | 0.49 | 0.925 | 22.6 | 4.13
1.25 | 0.62 | 1.01 | CRAVKYLQMVR [AVPR2_Y117_G122R] | 0.459 | 0.499 | 0.401 | 0.878 | 0.527 | 0.436 | 0.882 | 0.331 | 0.733 | 0.417 | 0.455 | 0.467 | 1.2
0.722 | 0.747 | 1.36 | HIAKVYRRDNP [HARS1_Y156] | 0.775 | 0.36 | 1.02 | 0.989 | 0.772 | 0.451 | 0.982 | 0.734 | 1.24 | 0.592 | 0.507 | 0.463 | 0.659
9.03 | 4.65 | 0.72 | LIDGYYRLTAD [JAK2_Y373] | 1.71 | 1.88 | 0.899 | 2.59 | 5.24 | 11.5 | 2.46 | 0.961 | 1 | 1.87 | 1.54 | 2.08 | 10.4
0.89 | 0.589 | 0.874 | IGEGTYRQVYK [CDK13_Y716_G717R] | 0.368 | 0.289 | 0.521 | 0.546 | 0.391 | 0.42 | 0.492 | 0.319 | 0.492 | 0.411 | 0.449 | 0.465 | 0.655
0.822 | 1.42 | 1.11 | PDDPNYSLVDD [PSTPIP2_Y323] | 1.15 | 1.09 | 0.603 | 1.81 | 1.31 | 1.06 | 2.13 | 0.662 | 0.8 | 1.11 | 1.07 | 1.49 | 1.4
0.704 | 0.878 | 0.932 | WDLSEYSYKDP [ITGA3_Y237] | 0.914 | 0.424 | 0.916 | 0.998 | 0.631 | 0.513 | 1.85 | 0.416 | 0.614 | 0.673 | 0.449 | 0.568 | 0.997
0.622 | 0.554 | 0.96 | THLARYSDELR [APOA1_Y190_P189R] | 0.539 | 0.32 | 0.397 | 0.645 | 0.449 | 0.437 | 0.653 | 0.494 | 0.405 | 0.4 | 0.616 | 0.412 | 0.543
0.534 | 0.458 | 0.9 | DFPIGYPSYLA [TBCK_Y153] | 0.438 | 0.406 | 0.501 | 0.902 | 0.55 | 0.481 | 0.722 | 0.463 | 0.619 | 0.422 | 0.582 | 0.457 | 0.829
0.733 | 0.388 | 0.731 | PVQAADQKVVA [HBB_Y131_Y131D] | 0.62 | 0.508 | 0.605 | 1.18 | 0.816 | 0.654 | 0.918 | 0.593 | 0.781 | 0.576 | 0.482 | 0.718 | 0.893
0.949 | 0.722 | 0.943 | CSEEMYCLMLQ [RET_Y981_R982C] | 1.08 | 1.02 | 2.26 | 1.3 | 2.76 | 3.5 | 3.36 | 4.4 | 1.25 | 1.31 | 6.9 | 0.794 | 1.22
0.665 | 1.72 | 0.837 | DELDKYSEVLK [TPM1_Y60_A63V] | 0.599 | 0.667 | 0.62 | 1.66 | 0.923 | 0.616 | 1.49 | 0.48 | 0.907 | 0.558 | 0.624 | 0.603 | 1.37
0.592 | 0.564 | 0.845 | CKLVDYDSARH [BIN1_Y150_R145C] | 0.463 | 0.505 | 0.372 | 0.909 | 0.624 | 0.395 | 0.777 | 0.381 | 0.61 | 0.414 | 0.401 | 0.447 | 0.66
0.638 | 0.471 | 0.738 | VDASYYGGRGV [ANTXR2_Y381] | 0.786 | 0.708 | 0.999 | 0.665 | 0.647 | 0.772 | 0.702 | 0.775 | 0.698 | 1.92 | 0.46 | 0.386 | 0.804
0.612 | 0.452 | 0.815 | GESKDYALHVG [SVIL_Y185] | 0.463 | 1.92 | 0.416 | 0.798 | 0.532 | 0.469 | 0.606 | 0.468 | 0.502 | 0.461 | 0.436 | 0.721 | 0.461

SH2 binding enrichment (SHP2-C SH2) | SH2 binding enrichment (c-Src SH2) | SH2 binding enrichment (Grb2 SH2) | Sequence | phosphorylation enrichment (Fyn) | phosphorylation enrichment (EPHB1) | phosphorylation enrichment (c-Src) | phosphorylation enrichment (Fes) | phosphorylation enrichment (FGFR3) | phosphorylation enrichment (FGFR1) | phosphorylation enrichment (AncSZ) | phosphorylation enrichment (MERTK) | phosphorylation enrichment (c-Abl (mouse)) | phosphorylation enrichment (Hck) | phosphorylation enrichment (Fer (mouse)) | phosphorylation enrichment (EPHB2) | phosphorylation enrichment (Jak2)
0.77 | 0.662 | 0.97 | HRFAAYFQQGD [GPI_Y351] | 0.633 | 0.88 | 0.609 | 1.79 | 0.897 | 0.962 | 1.17 | 0.643 | 0.979 | 0.501 | 0.496 | 0.759 | 1.59
0.97 | 0.521 | 0.711 | ADEEEYEIIAA [FEStide_E_2014] | 0.619 | 0.662 | 0.724 | 1.32 | 1.08 | 0.635 | 1.74 | 0.564 | 1.09 | 0.654 | 0.73 | 0.683 | 1.45
1.05 | 0.849 | 1.2 | KTKLGYSPLHQ [ANK1_Y735] | 0.373 | 0.296 | 0.369 | 0.48 | 0.385 | 0.31 | 0.454 | 0.399 | 0.691 | 0.322 | 0.354 | 0.326 | 0.397
0.693 | 0.373 | 0.68 | SVTCTYYPALN [TP53_Y126_S127Y] | 0.48 | 0.645 | 0.575 | 1.36 | 0.831 | 0.499 | 1.52 | 0.412 | 1.01 | 0.592 | 0.556 | 0.617 | 1.36
3.31 | 6.91 | 1.23 | CATIHYNYMCN [TP53_Y234_T230A] | 0.464 | 0.591 | 0.389 | 0.896 | 0.563 | 0.6 | 0.78 | 0.435 | 0.511 | 0.487 | 0.573 | 1.99 | 0.717
0.913 | 0.542 | 0.826 | RNESFYDTFST [EFCAB3_Y372] | 16.4 | 17.3 | 10.5 | 1.46 | 0.915 | 0.852 | 1.07 | 15.6 | 2.23 | 14.3 | 13.2 | 21 | 0.891
1.02 | 2.39 | 0.782 | ILGRYYETSSI [PAX2_Y73_G76S] | 0.547 | 0.527 | 0.466 | 0.705 | 0.802 | 0.86 | 0.724 | 0.594 | 0.55 | 0.524 | 0.629 | 0.476 | 0.632
0.81 | 0.445 | 1.09 | EGTGHYLCNAC [GATA5_Y208_D203E] | 0.411 | 0.354 | 0.395 | 0.57 | 0.566 | 0.462 | 0.524 | 0.54 | 0.525 | 0.352 | 0.378 | 0.375 | 0.505
0.635 | 2.39 | 0.772 | LIGRGYDDPEV [HSPA9_Y128_R127G] | 0.975 | 0.695 | 0.567 | 1.88 | 0.894 | 0.828 | 1.54 | 0.602 | 0.756 | 0.931 | 0.669 | 0.802 | 0.868
0.683 | 0.407 | 0.608 | RRVLVYGGRGA [QDPR_Y16] | 0.563 | 0.488 | 0.674 | 0.681 | 0.702 | 0.357 | 1.1 | 0.549 | 0.575 | 0.597 | 0.716 | 0.822 | 0.361
14 | 9.68 | 0.871 | EELLRYAIVTP [POC5_Y37_H36R] | 0.456 | 0.669 | 0.444 | 0.922 | 0.615 | 0.514 | 0.928 | 3.32 | 0.62 | 0.439 | 0.6 | 0.637 | 0.867
0.595 | 0.717 | 1.2 | LIDSSYLTPTA [GREB1L_Y1063_R1066P] | 0.409 | 0.569 | 0.421 | 1.15 | 0.825 | 0.596 | 0.919 | 0.511 | 0.871 | 0.684 | 0.423 | 0.498 | 0.8
0.931 | 0.677 | 1.08 | LKVDVYRRSHK [FUT3_Y222_G223R] | 0.44 | 0.656 | 0.753 | 1.46 | 0.85 | 0.611 | 1.11 | 0.546 | 0.908 | 0.577 | 0.485 | 0.496 | 1.78
0.894 | 0.862 | 1.18 | IFHLSYLHNCE [PDE6B_Y227_YF] | 0.546 | 0.589 | 0.431 | 1.26 | 0.856 | 0.494 | 0.985 | 0.436 | 0.782 | 0.512 | 0.562 | 0.566 | 0.956
3.24 | 6.3 | 1.08 | CTTVHYNYMCN [TP53_Y234_I232V] | 0.448 | 0.542 | 0.492 | 0.915 | 0.622 | 0.52 | 0.816 | 0.469 | 0.557 | 0.468 | 0.77 | 0.496 | 0.768
0.993 | 0.629 | 0.899 | SLQSEYVHFGG [CDC14A_Y591_YF] | 0.783 | 1.09 | 0.889 | 0.963 | 0.972 | 1.36 | 1.24 | 0.509 | 0.734 | 0.596 | 0.442 | 0.746 | 0.875
